Data on 125 sequences can be found in the supplement of paper PMC9112550, “Optimization of the antimicrobial peptide Bac7 by deep mutational scanning” (BMC Biology, 2022).

In the series the test system is Escherichia coli TOP10. The series is described as follows: shrunken log2 fold change of peptide-encoding DNA abundance (4.5 h post-induction vs induction); higher = less antimicrobial activity (less host growth inhibition). Particulars: time post-induction: 4.5 h; library: site-saturation at positions 5, 18, 19, 20.
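Also: peptides expressed intracellularly from a pBAD plasmid library in pooled LB shake-flask culture, induced with 0.3% L-arabinose, DNA abundance read by NGS, three biological replicates, DESeq2 with apeglm shrinkage.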

With RRIRWRPPRLPRPRPRPDCPPRP, the “shrunken log2 fold change” value was determined as 0.0548.

Regarding RRIRGRPPRLPRPRPRPCFFPRP, the “shrunken log2 fold change” value stood at 0.392.

Take RRIRFRPPRLPRPRPRPSGQPRP: the “shrunken log2 fold change” value was -0.204.

For the sequence RRIRPRPPRLPRPRPRPFEAPRP, the “shrunken log2 fold change” value is -0.105.

With RRIRWRPPRLPRPRPRPMSGPRP, the “shrunken log2 fold change” value amounted to 0.118.

Take RRIRARPPRLPRPRPRPPPPPRP: the “shrunken log2 fold change” value is 1.46.

Consider RRIRVRPPRLPRPRPRPRETPRP, for which the “shrunken log2 fold change” value was 0.513.

As to RRIRRRPPRLPRPRPRPEGVPRP, the “shrunken log2 fold change” value turned out to be 0.874.

Regarding RRIRERPPRLPRPRPRPQLSPRP, the “shrunken log2 fold change” value was determined as 0.1.

Take RRIRPRPPRLPRPRPRPCFCPRP: the “shrunken log2 fold change” value worked out at 0.299.

Regarding RRIRGRPPRLPRPRPRPHVPPRP, the “shrunken log2 fold change” value came out at 0.103.

For the sequence RRIRCRPPRLPRPRPRPLEFPRP, the “shrunken log2 fold change” value is -0.245.

On to RRIRYRPPRLPRPRPRPHTNPRP, for which the “shrunken log2 fold change” value was -0.661.

For the sequence RRIRQRPPRLPRPRPRPIHFPRP, the “shrunken log2 fold change” value is -0.236.

Turning to RRIRIRPPRLPRPRPRPHNQPRP, the “shrunken log2 fold change” value is -0.528.

Regarding RRIRDRPPRLPRPRPRPSCRPRP, the “shrunken log2 fold change” value was -0.0363.

For the sequence RRIRTRPPRLPRPRPRPVHCPRP, the “shrunken log2 fold change” value stood at 0.0307.

Take RRIRRRPPRLPRPRPRPITAPRP: the “shrunken log2 fold change” value worked out at 0.148.

As to RRIRARPPRLPRPRPRPKMQPRP, the “shrunken log2 fold change” value turned out to be 0.32.

With RRIRRRPPRLPRPRPRPHWMPRP, the “shrunken log2 fold change” value turned out to be 0.122.

On to RRIRLRPPRLPRPRPRPGKHPRP, for which the “shrunken log2 fold change” value is -0.0923.

As to RRIRERPPRLPRPRPRPNCMPRP, the “shrunken log2 fold change” value was -0.526.

As for RRIRSRPPRLPRPRPRPTNDPRP, the “shrunken log2 fold change” value is -0.162.

Regarding RRIRLRPPRLPRPRPRPHHMPRP, the “shrunken log2 fold change” value was -0.353.

In the case of RRIRIRPPRLPRPRPRPSICPRP, the “shrunken log2 fold change” value was -0.814.

Take RRIRERPPRLPRPRPRPNSQPRP: the “shrunken log2 fold change” value was -0.389.

For the sequence RRIRKRPPRLPRPRPRPYQWPRP, the “shrunken log2 fold change” value was -0.143.

Consider RRIRPRPPRLPRPRPRPKCGPRP, for which the “shrunken log2 fold change” value worked out at 0.574.

Turning to RRIRERPPRLPRPRPRPGPAPRP, the “shrunken log2 fold change” value was 0.439.

Regarding RRIRKRPPRLPRPRPRPYNRPRP, the “shrunken log2 fold change” value was -0.0322.

Turning to RRIRCRPPRLPRPRPRPSITPRP, the “shrunken log2 fold change” value is -0.641.

On to RRIRTRPPRLPRPRPRPLRGPRP, for which the “shrunken log2 fold change” value stood at 0.897.

Consider RRIRTRPPRLPRPRPRPMVKPRP, for which the “shrunken log2 fold change” value is -0.0282.

With RRIRGRPPRLPRPRPRPVDCPRP, the “shrunken log2 fold change” value amounted to 0.496.

Turning to RRIRDRPPRLPRPRPRPEWDPRP, the “shrunken log2 fold change” value is 1.4.

RRIRQRPPRLPRPRPRPDFCPRP: the “shrunken log2 fold change” value is -0.129.

For the sequence RRIRRRPPRLPRPRPRPSMQPRP, the “shrunken log2 fold change” value came out at 0.404.

As for RRIRCRPPRLPRPRPRPFSYPRP, the “shrunken log2 fold change” value was -0.947.

Take RRIRVRPPRLPRPRPRPSDGPRP: the “shrunken log2 fold change” value was 0.000198.

On to RRIRRRPPRLPRPRPRPWVRPRP, for which the “shrunken log2 fold change” value is -0.0986.

Take RRIRTRPPRLPRPRPRPYCGPRP: the “shrunken log2 fold change” value is -0.294.

Turning to RRIRRRPPRLPRPRPRPPRAPRP, the “shrunken log2 fold change” value was found to be 1.17.

On to RRIRTRPPRLPRPRPRPAHWPRP, for which the “shrunken log2 fold change” value stood at 0.882.

For the sequence RRIRWRPPRLPRPRPRPGICPRP, the “shrunken log2 fold change” value was determined as 0.146.

For RRIRIRPPRLPRPRPRPTMSPRP, the “shrunken log2 fold change” value is -0.124.

RRIRVRPPRLPRPRPRPISRPRP: the “shrunken log2 fold change” value stood at 0.107.

As for RRIRHRPPRLPRPRPRPERPPRP, the “shrunken log2 fold change” value is -0.0369.

Turning to RRIRNRPPRLPRPRPRPTQMPRP, the “shrunken log2 fold change” value was 0.0452.

For the sequence RRIRTRPPRLPRPRPRPKKMPRP, the “shrunken log2 fold change” value came to 0.0999.

For RRIRVRPPRLPRPRPRPKAVPRP, the “shrunken log2 fold change” value came to 0.0112.

Take RRIRCRPPRLPRPRPRPPAWPRP: the “shrunken log2 fold change” value came to 0.692.

Regarding RRIRCRPPRLPRPRPRPDMSPRP, the “shrunken log2 fold change” value was -0.329.

On to RRIRYRPPRLPRPRPRPGDWPRP, for which the “shrunken log2 fold change” value was found to be 0.337.

For the sequence RRIRGRPPRLPRPRPRPWKAPRP, the “shrunken log2 fold change” value worked out at 0.0375.

As for RRIRARPPRLPRPRPRPHENPRP, the “shrunken log2 fold change” value came out at 0.127.

With RRIRKRPPRLPRPRPRPDMCPRP, the “shrunken log2 fold change” value is 0.217.

Turning to RRIRPRPPRLPRPRPRPKMMPRP, the “shrunken log2 fold change” value was -0.032.

Consider RRIRQRPPRLPRPRPRPKQNPRP, for which the “shrunken log2 fold change” value is -0.0189.

RRIRDRPPRLPRPRPRPCKLPRP: the “shrunken log2 fold change” value is -0.0175.

In the case of RRIRMRPPRLPRPRPRPGSSPRP, the “shrunken log2 fold change” value was 0.198.

For RRIRERPPRLPRPRPRPQIAPRP, the “shrunken log2 fold change” value was determined as 0.0377.

For the sequence RRIRERPPRLPRPRPRPVILPRP, the “shrunken log2 fold change” value is -0.388.

In the case of RRIRARPPRLPRPRPRPMWWPRP, the “shrunken log2 fold change” value is 0.166.

As for RRIRQRPPRLPRPRPRPAKRPRP, the “shrunken log2 fold change” value is 0.0228.

On to RRIRIRPPRLPRPRPRPPLHPRP, for which the “shrunken log2 fold change” value amounted to 0.0232.

As to RRIRTRPPRLPRPRPRPTCDPRP, the “shrunken log2 fold change” value turned out to be 0.0699.

In the case of RRIRARPPRLPRPRPRPPLAPRP, the “shrunken log2 fold change” value turned out to be 0.861.

Turning to RRIRERPPRLPRPRPRPVDKPRP, the “shrunken log2 fold change” value is -0.0448.

As to RRIRVRPPRLPRPRPRPDIQPRP, the “shrunken log2 fold change” value was 1.23.

For RRIRMRPPRLPRPRPRPMDRPRP, the “shrunken log2 fold change” value is -0.0181.

Consider RRIRMRPPRLPRPRPRPGCMPRP, for which the “shrunken log2 fold change” value is 0.968.

In the case of RRIRERPPRLPRPRPRPMWGPRP, the “shrunken log2 fold change” value is -0.016.

Consider RRIRARPPRLPRPRPRPFSLPRP, for which the “shrunken log2 fold change” value was 0.0486.

Take RRIRMRPPRLPRPRPRPVWMPRP: the “shrunken log2 fold change” value worked out at 0.169.

As for RRIRCRPPRLPRPRPRPLGFPRP, the “shrunken log2 fold change” value is -0.116.

Consider RRIRYRPPRLPRPRPRPNVKPRP, for which the “shrunken log2 fold change” value was -0.386.

Turning to RRIRLRPPRLPRPRPRPFRCPRP, the “shrunken log2 fold change” value is -0.181.

RRIRHRPPRLPRPRPRPTIAPRP: the “shrunken log2 fold change” value is 0.451.

Regarding RRIRLRPPRLPRPRPRPCHHPRP, the “shrunken log2 fold change” value is -0.322.

For the sequence RRIRCRPPRLPRPRPRPAQTPRP, the “shrunken log2 fold change” value was 0.0194.

As to RRIRMRPPRLPRPRPRPDVSPRP, the “shrunken log2 fold change” value was found to be 2.14.

Turning to RRIRFRPPRLPRPRPRPKGAPRP, the “shrunken log2 fold change” value was -0.0295.

Consider RRIRCRPPRLPRPRPRPNYGPRP, for which the “shrunken log2 fold change” value is -0.297.

Take RRIRIRPPRLPRPRPRPPEQPRP: the “shrunken log2 fold change” value came out at 0.118.

Take RRIRTRPPRLPRPRPRPTSEPRP: the “shrunken log2 fold change” value was -0.126.

Consider RRIRDRPPRLPRPRPRPCGKPRP, for which the “shrunken log2 fold change” value turned out to be 0.2.

Regarding RRIRWRPPRLPRPRPRPKLGPRP, the “shrunken log2 fold change” value amounted to 0.0872.

Consider RRIRMRPPRLPRPRPRPYIPPRP, for which the “shrunken log2 fold change” value was -1.28.

On to RRIRQRPPRLPRPRPRPFMTPRP, for which the “shrunken log2 fold change” value is -0.00963.

As for RRIRLRPPRLPRPRPRPVSGPRP, the “shrunken log2 fold change” value amounted to 0.525.

Regarding RRIRFRPPRLPRPRPRPIFFPRP, the “shrunken log2 fold change” value was -0.137.

Turning to RRIRPRPPRLPRPRPRPGRKPRP, the “shrunken log2 fold change” value is 0.199.

For RRIRLRPPRLPRPRPRPWRNPRP, the “shrunken log2 fold change” value came to 0.00408.

Consider RRIRVRPPRLPRPRPRPYFCPRP, for which the “shrunken log2 fold change” value was -0.483.

On to RRIRIRPPRLPRPRPRPVEMPRP, for which the “shrunken log2 fold change” value is -0.299.

Consider RRIRPRPPRLPRPRPRPIQHPRP, for which the “shrunken log2 fold change” value was -0.053.

With RRIRQRPPRLPRPRPRPVIHPRP, the “shrunken log2 fold change” value is -0.455.

In the case of RRIRMRPPRLPRPRPRPTVWPRP, the “shrunken log2 fold change” value was 0.736.

In the case of RRIRARPPRLPRPRPRPAVNPRP, the “shrunken log2 fold change” value came out at 0.102.

For the sequence RRIRSRPPRLPRPRPRPMMGPRP, the “shrunken log2 fold change” value was determined as 0.0137.

With RRIRGRPPRLPRPRPRPCYCPRP, the “shrunken log2 fold change” value is -0.164.

RRIRVRPPRLPRPRPRPVSEPRP: the “shrunken log2 fold change” value is 0.155.

Turning to RRIRERPPRLPRPRPRPQEIPRP, the “shrunken log2 fold change” value came to 0.0133.

As for RRIRWRPPRLPRPRPRPGVDPRP, the “shrunken log2 fold change” value was determined as 0.371.

Regarding RRIRRRPPRLPRPRPRPAQLPRP, the “shrunken log2 fold change” value stood at 0.42.

As to RRIRPRPPRLPRPRPRPRICPRP, the “shrunken log2 fold change” value was 0.0562.

As to RRIRMRPPRLPRPRPRPNCPPRP, the “shrunken log2 fold change” value is -0.0204.

With RRIRLRPPRLPRPRPRPKVPPRP, the “shrunken log2 fold change” value turned out to be 0.0509.

As for RRIRLRPPRLPRPRPRPWGDPRP, the “shrunken log2 fold change” value is -0.176.

Consider RRIRERPPRLPRPRPRPCHTPRP, for which the “shrunken log2 fold change” value is -0.0292.

As for RRIRFRPPRLPRPRPRPDWHPRP, the “shrunken log2 fold change” value was -0.152.

On to RRIRARPPRLPRPRPRPMIKPRP, for which the “shrunken log2 fold change” value was found to be 0.148.

Regarding RRIRERPPRLPRPRPRPDLEPRP, the “shrunken log2 fold change” value was -0.0701.

As for RRIRARPPRLPRPRPRPGDYPRP, the “shrunken log2 fold change” value came to 0.226.

As for RRIRRRPPRLPRPRPRPFAGPRP, the “shrunken log2 fold change” value is -0.0164.

On to RRIRWRPPRLPRPRPRPPMTPRP, for which the “shrunken log2 fold change” value worked out at 0.257.

Turning to RRIRYRPPRLPRPRPRPRCEPRP, the “shrunken log2 fold change” value worked out at 0.076.

Consider RRIRYRPPRLPRPRPRPECFPRP, for which the “shrunken log2 fold change” value is -0.288.

With RRIRSRPPRLPRPRPRPHQDPRP, the “shrunken log2 fold change” value was -0.117.

Take RRIRHRPPRLPRPRPRPLIGPRP: the “shrunken log2 fold change” value is -0.155.

Turning to RRIRFRPPRLPRPRPRPHHVPRP, the “shrunken log2 fold change” value is -0.323.

In the case of RRIRIRPPRLPRPRPRPSKDPRP, the “shrunken log2 fold change” value was -1.02.

With RRIRFRPPRLPRPRPRPKRPPRP, the “shrunken log2 fold change” value was found to be 0.755.

As to RRIRTRPPRLPRPRPRPMSQPRP, the “shrunken log2 fold change” value was -0.000911.

Consider RRIRLRPPRLPRPRPRPVAEPRP, for which the “shrunken log2 fold change” value came out at 0.396.
